The nature of this data set: soluble on expression in E. coli; label from the status in PepcDB or PDB records.
On to “MTSLVAYGSDSEGEDDDFFGKPTTEKEETTKNAEKEKEEESEKIAESDEKPTISSFFFSGDDDKAGSSDSDDSEGESVGPKKKRRSGESVTELDKEFTSSIFDNDYAREERMNARMLSRHVDLSDKPSEKERKKSKFTCKNYLKGKCRFGDKCRFSHPVHNRSSDAVNEVSISSEAKFYTTETPEAQVFHSKKFKSSAGQ”, for which the “soluble on expression in E. coli” value is on record as “not soluble”.

“MGHHHHHHSHMPKAKKVDAVGPAADADITKPELVVPSEDPKTEEIESVEEKTVEKSTEKPVDKKGGRPVRGKKSPGSDEEAMDGEYEADEEEAALEPRRSTRGKRSYDQETGGRSVRKVVKKAKEVNKKPERAPSARGRGQKPAIGNDSTTEDGEEKKSGKNASDTDSDEEAKVVKRPTSGRMSGAPPSARMLALKKKNHDDSE”: the “soluble on expression in E. coli” value was “not soluble”.

As to “MGSDKIHHHHHHMTEIQTIRKKVEQQITSLQNETDEIAEFNQAKVLDAFQENKVSDFHFNPSTGYGYDDEGRDTLERVYASVFKTEAALVRPQIISGTHAISTVLFGILRPGDELLYITGEPYDTLEEIVGIRSEGQGSLKDFQIGYDAVPLLPNGEIDYPAVSKKISANTKMIGIQRSRGYADRPSFTIEKIKEMVTFVKNINPNIIVFVDNCYGEFVERIEPTEVGADIIAGSLIKNPGGGLAKTGGYIAGRNTLVDLCGYRLTTPGIGREAGASLYSLLEMYQGFFLAPHVTAQAIKGARFTAAMLAEFGVEADPLWDAKRTDLIQSVSFHSKDKMIAFAQAIQAASPVNAHVLPIGAYMPGYEDDVIMAAGTFIQGASLELTADGPIREPYQLYVQGGLTYEHVKIAVTRAIENSL”, the “soluble on expression in E. coli” value is given as “not soluble”.

Take “MSLAIWAAGDTAGVATVVRTLRSAPRPPGAAMVVAPDGSVSGSVSGGCVEGAVYELAAEVAQTGIPRLEHYGVSDDTAFAVGLTCGGIIDVFVEPVSRATFPELGELADDIGAQRPVAIATVIAHPDERRVGRRLVIRPDTKSPVTGSLGSARADAAVIDDARGLLAVGRSEILEYGPDGQRRGEGMEVFVSSHAPRPRMLVFGAIDFAAALARQGSFLGYRVTVCDARAVFATPARFPTADDVVVAWPHRYLAAQAEAGGIDERTVICVLTHDPKFDVPVLEVALRLGVGYVGAMGSRKTHDDRMDRLRAAGLTDAELSRLSSPIGLDLGARTPEETAVSIAADIIARRWGGGGRPLADIAGRIHHDAQVAGEFKDYLTRHEGHHHHHH”: the “soluble on expression in E. coli” value is reported as “soluble”.

In the case of “SMDSRLQRIHAEIKNSLKIDNLDVNRCIEALDELASLQVTMQQAQKHTEMITTLKKIRRFKVSQVIMEKSTMLYNKFKNMFLVGEGDSVLEVLFQ”, the “soluble on expression in E. coli” value was “soluble”.

As for “LVHLSVHNYAIVEHLDLELDRGMSVITGETGAGKSIMLDALGLTLGDRADSGVVRPGADKADILATFDLGDIPEAEAWLKERDLDNDGPCILRRVITAEGRSRSYINGSPCPQGDLKALGELLIDIHSQHEHQSLLKTDTHRRLLDEYAGATDLARQVHLAAQRWRQTRQELERL”, the “soluble on expression in E. coli” value is listed as “not soluble”.

For “MTIKEDLGRRIKAERNRKQLTQSLLCGDETKLTIRQLQRIEGGQSLPTLEKLEFIADRLGTKIADLLEGSDIQLPDDYWELKGQIVKFPTYADKERLQQKQELIEEIYDKYFDILPEDELLFLDLSENILDSFHEKDIPNIEEIYDDAFEQVLKKETFAFNDYLYMSYFLQKCGKTADYDQTTFKLLEQKLLKQELTVDELYNIELLIAVMEASGVYALHNDYQNLLPLMKKAQRIIDKAQLHTYKPPLLELEAKYYVKVVKDKKKAKELYQQALVMGEVLGDPVIIADVKMEMANDGID”, the “soluble on expression in E. coli” value is on record as “not soluble”.

Regarding “MGSDKIHHHHHHWIAFAGNMNTTIDNESDELKAIDYKDLEVKEKLGEGASGEVYRAMYGGSDVALKLFRGAATSDGLPEDEIKVMQRLGPDENSVSILGSVVGAPEGQLAALLPLVPPSFTILGNPPTFDSCTRDTYPKDKTFSLRTAIEILEAIARVCAHLHSRGLSHGDLYAHNILVQIGVDGEPTRTKLSDYGAASFSSVLKPHQVALLERIEVRAFGALAEELMDRLEEADAEGVAHRLSSVIVKSMRADVASRPSFSEIHQEMVAFLKEV”, the “soluble on expression in E. coli” value was “not soluble”.

On to “MGSDKIHHHHHHMKLLMLCREPRLYSCQRLKESAEDNGHQIDILDPNRCLLKLSKNAPHFELYYQVNSKSEPYLLPDYDAIIPRFGSTSTRMGCAVLRHFRTKNIFCLNDDVAFLKARDKWLSLQLLTEQGIAVPNSALSGAEFSATQAILQIQSPTILKTLHGSQGIGVILAENRKSAVSIMETLTQADVPLLMQDFIQEAQGTDIRCFVIGDKVVATMQRIGQEDEFRANFHRGGSAEKIQLTEQEKVLALKATKCLGLDVAGVDLIRSKQGLLVLEVNASPGLEMIEKTSGIDIALQMIVHIEKQFKR”, for which the “soluble on expression in E. coli” value was “not soluble”.

Values taken from the DeepSol protein solubility set.
